Measurements: paper doi:10.1101/2020.08.07.241737 (bioRxiv, 2020)

Target: T1, COP1-His recombinant protein (Arabidopsis thaliana, UniProt P43254 1-675)
T1 sequence (looked up): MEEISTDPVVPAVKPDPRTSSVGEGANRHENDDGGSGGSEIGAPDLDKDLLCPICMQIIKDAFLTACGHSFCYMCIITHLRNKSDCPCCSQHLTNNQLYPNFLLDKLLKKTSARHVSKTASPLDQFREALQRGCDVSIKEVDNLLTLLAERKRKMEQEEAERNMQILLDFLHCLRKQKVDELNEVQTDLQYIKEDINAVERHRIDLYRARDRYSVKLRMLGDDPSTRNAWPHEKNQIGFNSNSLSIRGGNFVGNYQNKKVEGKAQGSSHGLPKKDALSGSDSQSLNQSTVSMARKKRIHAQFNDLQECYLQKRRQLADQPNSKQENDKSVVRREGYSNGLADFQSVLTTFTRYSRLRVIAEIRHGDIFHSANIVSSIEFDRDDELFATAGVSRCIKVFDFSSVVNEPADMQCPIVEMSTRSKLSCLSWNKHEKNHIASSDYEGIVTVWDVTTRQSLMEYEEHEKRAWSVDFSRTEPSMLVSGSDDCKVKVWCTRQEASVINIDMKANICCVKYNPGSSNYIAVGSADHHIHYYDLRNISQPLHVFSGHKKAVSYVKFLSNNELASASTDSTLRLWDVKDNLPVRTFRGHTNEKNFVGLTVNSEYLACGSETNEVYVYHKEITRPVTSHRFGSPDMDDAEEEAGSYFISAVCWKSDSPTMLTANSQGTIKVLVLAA
Test: pull-down

B1: GST-HDA15 recombinant protein (enzyme, Arabidopsis thaliana, UniProt Q8GXJ1 1-552, looked up)
chain: MVVETIERSCEGSKRRHVNGGDIAVPCSGEECSNGDINVAPGVSAKRARVSREMTFEDIYGADALLNDDDDEDDDCDWEPVQAPMEFVKWCCVNCTMSNPGDMVHCCICGEHKESGILRHGYLASPFFKDTGLIEVEEKYGGSSSATSSTAVGFDERMLLHSEFEVKAQPHPERPDRLRAIAASLATAGVFPGRCLPINAREITKQELQMVHTSEHVDAVDTTSQLLYSYFTSDTYANEYSARAARLAAGLCADLATDIFTGRVKNGFALVRPPGHHAGVRHAMGFCLHNNAAVAALVAQAAGAKKVLIVDWDVHHGNGTQEIFEQNKSVLYISLHRHEGGNFYPGTGAADEVGSNGGEGYCVNVPWSCGGVGDKDYIFAFQHVVLPIASAFSPDFVIISAGFDAARGDPLGCCDVTPAGYSRMTQMLGDLCGGKMLVILEGGYNLRSISASATAVIKVLLGENPENELPIATTPSVAGLQTVLDVLNIQLEFWPSLAISYSKLLSELEARLIENKKNQMKRKVVRVPTWWKWGRKKLLYNFLSARMISRSK
binding result: binds
